Assay results: IntAct's records for PubMed 23142979

Target: DAXX, Q9UER7-1
Sequence (Q9UER7 whole entry): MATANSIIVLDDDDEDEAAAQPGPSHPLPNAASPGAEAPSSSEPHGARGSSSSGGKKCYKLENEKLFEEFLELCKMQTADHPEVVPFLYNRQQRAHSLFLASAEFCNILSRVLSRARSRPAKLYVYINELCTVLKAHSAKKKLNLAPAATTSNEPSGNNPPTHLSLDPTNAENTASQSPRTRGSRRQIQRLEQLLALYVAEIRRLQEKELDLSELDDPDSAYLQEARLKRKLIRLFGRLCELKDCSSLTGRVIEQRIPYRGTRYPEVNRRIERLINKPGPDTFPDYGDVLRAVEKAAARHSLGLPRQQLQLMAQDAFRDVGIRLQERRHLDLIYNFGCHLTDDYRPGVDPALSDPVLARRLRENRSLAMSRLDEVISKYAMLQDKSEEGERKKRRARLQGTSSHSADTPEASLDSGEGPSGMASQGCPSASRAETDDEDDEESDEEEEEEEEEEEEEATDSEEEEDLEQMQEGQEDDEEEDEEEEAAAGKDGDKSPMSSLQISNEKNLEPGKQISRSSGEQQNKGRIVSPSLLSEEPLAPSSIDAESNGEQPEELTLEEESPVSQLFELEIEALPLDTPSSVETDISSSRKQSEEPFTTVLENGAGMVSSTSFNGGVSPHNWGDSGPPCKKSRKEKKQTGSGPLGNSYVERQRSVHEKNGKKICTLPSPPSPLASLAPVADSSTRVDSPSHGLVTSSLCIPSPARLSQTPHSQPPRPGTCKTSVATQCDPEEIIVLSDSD

How did the “effect of a mutation on the interaction” value turn out when “Histone H3.1 (Homo sapiens) (from UniProt P68431) S88A” was run?
The value was “increasing interaction strength”.
